Laboratory results as given in PMC12945441 (Science (New York, N.Y.), 2022).

Target: prefusion SARS-CoV-2 Omicron BA.1 S ectodomain trimer (SARS-CoV-2 Omicron BA.1 (B.1.1.529), strain)
Assay: cryo-EM structure
Details: both partners purified

B1: S2X324 Fab fragment (Fab, V domains shown)
VH: QITLKESGPTLVKPTQTLTLTCTFSGFSVTTSGVGVGWIRQPPGKALEYLALIYWDDDKRYSTSLKSRLTITKDTSKNQVVLTMTNMDPVDTATYYCARHTIPSIFDYWGQGILVTVSS
VL: QPVLTQPASVSGSPGQSITISCTATSSDVGNYNYVSWYQHHPGKAPKLMIYEVSNRPSGVSNRFSGSKSGNTASLTISGLQAEDEADYYCSSYTSSSLLFGGGTKLTVL
  stoichiometry N: 3 Fabs per S trimer
